Target: AHb1 (Arabidopsis thaliana, UniProt O24520)
Assay: size exclusion chromatography

Row | Binder | Kd [µM]
1 | AHb1 (protein, ferrous-oxy heme (O2-bound)) MESEGKIVFTEEQEALVVKSWSVMKKNSAELGLKLFIKIFEIAPTTKKMFSFLRDSPIPAEQNPKLKPHAMSVFVMCCESAVQLRKTGKVTVRETTLKRLGASHSKYGVVDEHFEVAKYALLETIKEAVPEMWSPEMKVAWGQAYDHLVAAIKAEMNLSN | 1.2
2 | AHb1 (protein, ferric heme) MESEGKIVFTEEQEALVVKSWSVMKKNSAELGLKLFIKIFEIAPTTKKMFSFLRDSPIPAEQNPKLKPHAMSVFVMCCESAVQLRKTGKVTVRETTLKRLGASHSKYGVVDEHFEVAKYALLETIKEAVPEMWSPEMKVAWGQAYDHLVAAIKAEMNLSN | 11

Reference: publication PMC7761212 (2020)
